According to PMC11096372:

Legend:
[1] = target: Cas7b, backbone subunit of the Synechocystis sp. PCC 6714 type I-B Cascade (Synechocystis sp. PCC 6714); experiment: cryo-EM structure; SEC-purified Cascade with crRNA and a 59-bp ATG-PAM dsDNA target; full R-loop (higher than 3.6 Å) and partial R-loop (3.8 Å) states
[2] = target: Cas11b, small subunit of the Synechocystis sp. PCC 6714 type I-B Cascade (Synechocystis sp. PCC 6714); experiment: as above

| stoichiometry N [1] | stoichiometry N [2] | Substance |
| --- | --- | --- |
| 7 | – | Cas7b, backbone subunit of the Synechocystis sp. PCC 6714 type I-B Cascade (natural protein) |
| – | 3 | Cas11b, small subunit of the Synechocystis sp. PCC 6714 type I-B Cascade (natural protein) |
